The numbers were not newly measured in PMC3871196, which cites them from elsewhere.

As a reminder, the Kd is the free concentration of one partner at which half of the binding sites on the other are occupied at equilibrium, for simple one-to-one binding.

For this series, the target named is Calmodulin (UniProt P0DP23).

Consider “Peripherin/rds PerCter C-terminal domain (from UniProt P17810)”, for which the Kd is 320 nM.
